Experiment [1] deals with human α4β7 integrin on cells (human) (UniProt P13612). Description: RPMI8866 adhesion to MAdCAM-1.
For experiment [2], the target named is rh integrin α4β7 (R&D Systems #5397-A30) (human) (UniProt P13612). Description: competition ELISA vs MAdCAM-1. In general terms: In an ELISA, binding on a coated surface is turned into a signal by an enzyme label.

The term IC50 denotes the concentration at which inhibition is half-maximal. Read a high IC50 as lower potency.

Bridge positions count the residues as written; N and C are the ends. Square brackets hold non-standard residues; d marks the D form. Ends that are not written are not given here. 1Nal = N[C@@H](Cc1cccc2ccccc12)C(=O)O; 2Nal = N[C@@H](Cc1ccc2ccccc2c1)C(=O)O; d1Nal = N[C@H](Cc1cccc2ccccc12)C(=O)O; d2Nal = N[C@H](Cc1ccc2ccccc2c1)C(=O)O; NMeR = CN[C@@H](CCCNC(=N)N)C(=O)O; Pen = CC(C)(S)[C@H](N)C(=O)O; dNMeK = CN[C@H](CCCCN)C(=O)O; hLeu = CC(C)CC[C@H](N)C(=O)O; Dab = NCC[C@H](N)C(=O)O; Dap = NC[C@H](N)C(=O)O

B1: SEQ ID NO: 162 (peptide)
peptide: Ac-[Pen][NMeR]SDTF[Pen][2Nal][dE]-NH2
modifications: disulfide 1-7
SMILES: CC(=O)N[C@@H]1C(=O)N(C)[C@@H](CCCNC(=N)N)C(=O)N[C@@H](CO)C(=O)N[C@@H](CC(=O)O)C(=O)N[C@@H]([C@@H](C)O)C(=O)N[C@@H](Cc2ccccc2)C(=O)N[C@H](C(=O)N[C@@H](Cc2ccc3ccccc3c2)C(=O)N[C@H](CCC(=O)O)C(N)=O)C(C)(C)SSC1(C)C
For the molecule B1, in experiment [1], the half-maximal inhibitory concentration (IC50) was > 1000 nM.
On the same count and under the same terms, the value for Ac-[Pen][NMeR]SDTL[Pen]W[dE][Dap] (disulfide 1-7; also: C-terminus written Dap-Ac, acetyl place unclear) [SEQ ID NO: 63] was > 1000 nM.

B2: SEQ ID NO: 11 (peptide)
peptide: Ac-[Pen][NMeR]SDTL[Pen][d2Nal]E[dK]-NH2
modifications: disulfide 1-7
SMILES: CC(=O)N[C@@H]1C(=O)N(C)[C@@H](CCCNC(=N)N)C(=O)N[C@@H](CO)C(=O)N[C@@H](CC(=O)O)C(=O)N[C@@H]([C@@H](C)O)C(=O)N[C@@H](CC(C)C)C(=O)N[C@H](C(=O)N[C@H](Cc2ccc3ccccc3c2)C(=O)N[C@@H](CCC(=O)O)C(=O)N[C@H](CCCCN)C(N)=O)C(C)(C)SSC1(C)C
Turning to B2, the half-maximal inhibitory concentration (IC50) in experiment [2] was > 25 nM.
On the same count and under the same terms, in the case of Ac-[Pen][NMeR]SDTL[Pen][2Nal]E[dNMeK]-NH2 (disulfide 1-7 (inferred)) [SEQ ID NO: 15] it was < 10 nM.
For the molecule Ac-[Pen][NMeR]SDTL[Pen]WE[Dap] (disulfide 1-7; also: C-terminus written Dap-Ac, acetyl place unclear) [SEQ ID NO: 60], the 50% inhibitory concentration (IC50) in experiment [1] was > 1000 nM.
On the same count and under the same terms, the value for Ac-[Pen][NMeR]SDTL[Pen]W[dE][Dab] (disulfide 1-7; also: C-terminus written Dab-Ac, acetyl place unclear) [SEQ ID NO: 64] was > 1000 nM.

B3: SEQ ID NO: 163 (peptide)
peptide: Ac-[Pen][NMeR]SDTQ[Pen][2Nal][dE]-NH2
modifications: disulfide 1-7
SMILES: CC(=O)N[C@@H]1C(=O)N(C)[C@@H](CCCNC(=N)N)C(=O)N[C@@H](CO)C(=O)N[C@@H](CC(=O)O)C(=O)N[C@@H]([C@@H](C)O)C(=O)N[C@@H](CCC(N)=O)C(=O)N[C@H](C(=O)N[C@@H](Cc2ccc3ccccc3c2)C(=O)N[C@H](CCC(=O)O)C(N)=O)C(C)(C)SSC1(C)C
With B3, the IC50 in experiment [1] is > 1000 nM.

B4: SEQ ID NO: 159 (peptide)
peptide: Ac-[Pen][NMeR]SDLL[Pen][2Nal][dE]-NH2
modifications: disulfide 1-7
SMILES: CC(=O)N[C@@H]1C(=O)N(C)[C@@H](CCCNC(=N)N)C(=O)N[C@@H](CO)C(=O)N[C@@H](CC(=O)O)C(=O)N[C@@H](CC(C)C)C(=O)N[C@@H](CC(C)C)C(=O)N[C@H](C(=O)N[C@@H](Cc2ccc3ccccc3c2)C(=O)N[C@H](CCC(=O)O)C(N)=O)C(C)(C)SSC1(C)C
As for B4, in experiment [1], the 50% inhibitory concentration (IC50) was > 1000 nM.

B5: SEQ ID NO: 59 (peptide)
peptide: Ac-[Pen][NMeR]SDTL[Pen]WE[Dap]-NH2
modifications: disulfide 1-7
SMILES: CC(=O)N[C@@H]1C(=O)N(C)[C@@H](CCCNC(=N)N)C(=O)N[C@@H](CO)C(=O)N[C@@H](CC(=O)O)C(=O)N[C@@H]([C@@H](C)O)C(=O)N[C@@H](CC(C)C)C(=O)N[C@H](C(=O)N[C@@H](Cc2c[nH]c3ccccc23)C(=O)N[C@@H](CCC(=O)O)C(=O)N[C@@H](CN)C(N)=O)C(C)(C)SSC1(C)C
Regarding B5, the half-inhibitory concentration (IC50) in experiment [1] is > 10000 nM.
Ac-[Pen][NMeR]SDTL[Pen][1Nal][dE][dNMeK]-NH2 (disulfide 1-7 (inferred)) [SEQ ID NO: 12]: the concentration for half-maximal inhibition (IC50) in experiment [2] was > 25 nM.

B6: SEQ ID NO: 56 (peptide)
peptide: Ac-[Pen][NMeR]SDTL[Pen]W[dE][Dab]-NH2
modifications: disulfide 1-7
SMILES: CC(=O)N[C@@H]1C(=O)N(C)[C@@H](CCCNC(=N)N)C(=O)N[C@@H](CO)C(=O)N[C@@H](CC(=O)O)C(=O)N[C@@H]([C@@H](C)O)C(=O)N[C@@H](CC(C)C)C(=O)N[C@H](C(=O)N[C@@H](Cc2c[nH]c3ccccc23)C(=O)N[C@H](CCC(=O)O)C(=O)N[C@@H](CCN)C(N)=O)C(C)(C)SSC1(C)C
Turning to B6, the IC50 in experiment [1] was > 500 nM.
Turning to Ac-[Pen][NMeR]SDTL[Pen][2Nal][dE][dNMeK]-NH2 (disulfide 1-7; also: dimer via DIG) [SEQ ID NO: 39], in experiment [1], the IC50 was > 10 nM.
Still for that read-out and setting: in the case of Ac-[Pen][NMeR]SDTL[Pen][2Nal][dY][dK]-NH2 (disulfide 1-7; also: dimer via DIG) [SEQ ID NO: 27] it was > 25 nM.

B7: SEQ ID NO: 55 (peptide)
peptide: Ac-[Pen][NMeR]SDTL[Pen]W[dE][Dap]-NH2
modifications: disulfide 1-7
SMILES: CC(=O)N[C@@H]1C(=O)N(C)[C@@H](CCCNC(=N)N)C(=O)N[C@@H](CO)C(=O)N[C@@H](CC(=O)O)C(=O)N[C@@H]([C@@H](C)O)C(=O)N[C@@H](CC(C)C)C(=O)N[C@H](C(=O)N[C@@H](Cc2c[nH]c3ccccc23)C(=O)N[C@H](CCC(=O)O)C(=O)N[C@@H](CN)C(N)=O)C(C)(C)SSC1(C)C
In the case of B7, the half-maximal inhibitory concentration (IC50) in experiment [1] was > 100 nM.

B8: SEQ ID NO: 61 (peptide)
peptide: Ac-[Pen][NMeR]SDTL[Pen]WE[Dab]-NH2
modifications: disulfide 1-7
SMILES: CC(=O)N[C@@H]1C(=O)N(C)[C@@H](CCCNC(=N)N)C(=O)N[C@@H](CO)C(=O)N[C@@H](CC(=O)O)C(=O)N[C@@H]([C@@H](C)O)C(=O)N[C@@H](CC(C)C)C(=O)N[C@H](C(=O)N[C@@H](Cc2c[nH]c3ccccc23)C(=O)N[C@@H](CCC(=O)O)C(=O)N[C@@H](CCN)C(N)=O)C(C)(C)SSC1(C)C
For B8, the half-inhibitory concentration (IC50) in experiment [1] was > 1000 nM.

B9: SEQ ID NO: 10 (peptide)
peptide: Ac-[Pen][NMeR]SDTL[Pen][d1Nal]E[dK]-NH2
modifications: disulfide 1-7
SMILES: CC(=O)N[C@@H]1C(=O)N(C)[C@@H](CCCNC(=N)N)C(=O)N[C@@H](CO)C(=O)N[C@@H](CC(=O)O)C(=O)N[C@@H]([C@@H](C)O)C(=O)N[C@@H](CC(C)C)C(=O)N[C@H](C(=O)N[C@H](Cc2cccc3ccccc23)C(=O)N[C@@H](CCC(=O)O)C(=O)N[C@H](CCCCN)C(N)=O)C(C)(C)SSC1(C)C
B9: the concentration for half-maximal inhibition (IC50) in experiment [2] was > 10 nM.

B10: SEQ ID NO: 8 (peptide)
peptide: Ac-[Pen][NMeR]SDTL[Pen][1Nal][dE][dK]-NH2
modifications: disulfide 1-7
SMILES: CC(=O)N[C@@H]1C(=O)N(C)[C@@H](CCCNC(=N)N)C(=O)N[C@@H](CO)C(=O)N[C@@H](CC(=O)O)C(=O)N[C@@H]([C@@H](C)O)C(=O)N[C@@H](CC(C)C)C(=O)N[C@H](C(=O)N[C@@H](Cc2cccc3ccccc23)C(=O)N[C@H](CCC(=O)O)C(=O)N[C@H](CCCCN)C(N)=O)C(C)(C)SSC1(C)C
With B10, in experiment [2], the IC50 is > 25 nM.

B11: SEQ ID NO: 160 (peptide)
peptide: Ac-[Pen][NMeR]SDIL[Pen][2Nal][dE]-NH2
modifications: disulfide 1-7
SMILES: CC[C@H](C)[C@@H]1NC(=O)[C@H](CC(=O)O)NC(=O)[C@H](CO)NC(=O)[C@H](CCCNC(=N)N)N(C)C(=O)[C@@H](NC(C)=O)C(C)(C)SSC(C)(C)[C@@H](C(=O)N[C@@H](Cc2ccc3ccccc3c2)C(=O)N[C@H](CCC(=O)O)C(N)=O)NC(=O)[C@H](CC(C)C)NC1=O
Regarding B11, the IC50 in experiment [1] was > 1000 nM.

B12: SEQ ID NO: 161 (peptide)
peptide: Ac-[Pen][NMeR]SD[hLeu]L[Pen][2Nal][dE]-NH2
modifications: disulfide 1-7
SMILES: CC(=O)N[C@@H]1C(=O)N(C)[C@@H](CCCNC(=N)N)C(=O)N[C@@H](CO)C(=O)N[C@@H](CC(=O)O)C(=O)N[C@@H](CCC(C)C)C(=O)N[C@@H](CC(C)C)C(=O)N[C@H](C(=O)N[C@@H](Cc2ccc3ccccc3c2)C(=O)N[C@H](CCC(=O)O)C(N)=O)C(C)(C)SSC1(C)C
Turning to B12, the IC50 in experiment [1] was > 1000 nM.
Regarding Ac-[Pen][NMeR]SDTL[Pen][d1Nal]E[dK]-NH2 (disulfide 1-7; also: dimer via DIG) [SEQ ID NO: 34], the IC50 in experiment [1] is > 25 nM.
Consider Ac-[Pen][NMeR]SDTL[Pen]WE[Dab] (disulfide 1-7; also: C-terminus written Dab-Ac, acetyl place unclear) [SEQ ID NO: 62], for which the 50% inhibitory concentration (IC50) in experiment [1] is > 1000 nM.
Ac-[Pen][NMeR]SDTL[Pen][d2Nal]E[dK]-NH2 (disulfide 1-7; also: dimer via DIG) [SEQ ID NO: 35]: the IC50 in experiment [1] was > 100 nM.

B13: SEQ ID NO: 88 (peptide)
peptide: Ac-[Pen][NMeR]SDTL[Pen][2Nal][dK]-NH2
modifications: disulfide 1-7
SMILES: CC(=O)N[C@@H]1C(=O)N(C)[C@@H](CCCNC(=N)N)C(=O)N[C@@H](CO)C(=O)N[C@@H](CC(=O)O)C(=O)N[C@@H]([C@@H](C)O)C(=O)N[C@@H](CC(C)C)C(=O)N[C@H](C(=O)N[C@@H](Cc2ccc3ccccc3c2)C(=O)N[C@H](CCCCN)C(N)=O)C(C)(C)SSC1(C)C
As to B13, the 50% inhibitory concentration (IC50) in experiment [2] is > 10 nM.

B14: SEQ ID NO: 164 (peptide)
peptide: Ac-[Pen][NMeR]SDTY[Pen][2Nal][dE]-NH2
modifications: disulfide 1-7
SMILES: CC(=O)N[C@@H]1C(=O)N(C)[C@@H](CCCNC(=N)N)C(=O)N[C@@H](CO)C(=O)N[C@@H](CC(=O)O)C(=O)N[C@@H]([C@@H](C)O)C(=O)N[C@@H](Cc2ccc(O)cc2)C(=O)N[C@H](C(=O)N[C@@H](Cc2ccc3ccccc3c2)C(=O)N[C@H](CCC(=O)O)C(N)=O)C(C)(C)SSC1(C)C
Regarding B14, the IC50 in experiment [1] was > 1000 nM.
